We go through four molecules from PMC7337323 (Nature structural & molecular biology, 2020).

B1: wild-type H. neapolitanus Rubisco (CbbL8S8) (complex, Halothiobacillus neapolitanus)
chain 1: MAVKKYSAGVKEYRQTYWMPEYTPLDSDILACFKITPQPGVDREEAAAAVAAESSTGTWTTVWTDLLTDMDYYKGRAYRIEDVPGDDAAFYAFIAYPIDLFEEGSVVNVFTSLVGNVFGFKAVRGLRLEDVRFPLAYVKTCGGPPHGIQVERDKMNKYGRPLLGCTIKPKLGLSAKNYGRAVYECLRGGLDFTKDDENINSQPFMRWRDRFLFVQDATETAEAQTGERKGHYLNVTAPTPEEMYKRAEFAKEIGAPIIMHDYITGGFTANTGLAKWCQDNGVLLHIHRAMHAVIDRNPNHGIHFRVLTKILRLSGGDHLHTGTVVGKLEGDRASTLGWIDLLRESFIPEDRSRGIFFDQDWGSMPGVFAVASGGIHVWHMPALVNIFGDDSVLQFGGGTLGHPWGNAAGAAANRVALEACVEARNQGRDIEKEGKEILTAAAQHSPELKIAMETWKEIKFEFDTVDKLDTQNR
chain 2: MAEMQDYKQSLKYETFSYLPPMNAERIRAQIKYAIAQGWSPGIEHVEVKNSMNQYWYMWKLPFFGEQNVDNVLAEIEACRSAYPTHQVKLVAYDNYAQSLGLAFVVYRGN
B2: CbbL (Rubisco large subunit, H. neapolitanus) (natural protein, Halothiobacillus neapolitanus)
chain: B1 chain 1
B3: [N1]-GFP (single CsoS2 N-peptide repeat N1 fused to GFP) (domain or fragment)
chain: PSQSGMNPADLSGLSGKELARARRAALSKQGKAAVSNKTASVNRSTKQAASSINTNQVRSSVNEVPTDYQMADQLCSTIDHADFGTESNRV
modifications: CsoS2 part of Supplementary Table 1 construct; His tag, TEV site, linker, sfGFP and StrepII left out

Series [1] has as its target N*-polyPro (N* consensus peptide on a polyproline II helix). In words: BLI.
Series [2] concerns the target T1, full-length CsoS2 (H. neapolitanus) (Halothiobacillus neapolitanus, UniProt O85041 1-869).
T1 sequence (looked up): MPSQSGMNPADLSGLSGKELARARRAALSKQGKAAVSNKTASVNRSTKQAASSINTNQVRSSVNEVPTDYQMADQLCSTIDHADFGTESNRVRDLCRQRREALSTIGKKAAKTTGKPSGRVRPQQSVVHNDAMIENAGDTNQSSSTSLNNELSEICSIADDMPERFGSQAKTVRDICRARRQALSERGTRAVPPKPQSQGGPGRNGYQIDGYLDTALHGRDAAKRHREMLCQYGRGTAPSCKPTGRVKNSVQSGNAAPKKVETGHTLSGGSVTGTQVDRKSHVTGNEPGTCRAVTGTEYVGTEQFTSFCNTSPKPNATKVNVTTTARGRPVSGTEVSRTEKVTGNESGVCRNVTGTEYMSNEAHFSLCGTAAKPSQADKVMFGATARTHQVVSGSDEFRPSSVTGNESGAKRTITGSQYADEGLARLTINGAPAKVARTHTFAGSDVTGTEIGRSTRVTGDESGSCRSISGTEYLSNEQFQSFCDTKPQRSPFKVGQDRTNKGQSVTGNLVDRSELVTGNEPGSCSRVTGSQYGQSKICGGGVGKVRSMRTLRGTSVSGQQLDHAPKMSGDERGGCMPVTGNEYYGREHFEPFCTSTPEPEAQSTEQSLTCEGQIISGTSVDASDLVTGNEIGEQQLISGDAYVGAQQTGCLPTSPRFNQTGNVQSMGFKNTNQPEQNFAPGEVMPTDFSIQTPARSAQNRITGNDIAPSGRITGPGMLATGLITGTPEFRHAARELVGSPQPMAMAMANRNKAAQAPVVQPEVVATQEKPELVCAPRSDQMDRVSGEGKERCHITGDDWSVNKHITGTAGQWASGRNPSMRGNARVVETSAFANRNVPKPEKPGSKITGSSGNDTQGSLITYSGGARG
In words: native gel or EMSA. (In EMSA bound probe runs differently from free probe, usually more slowly.)

The series “crystal structure” deals with the molecule itself. In words: crystal structure.
In series [3] the target is B1. Description: MST.

A value given as a limit tells only on which side of the number the result lay.

In series [1], “wild-type H. neapolitanus Rubisco (CbbL8S8) (from UniProt O85040 1-473; P45686 1-110) (complex)” returned a Kd of 0.1 µM.

For the molecule B1, the binding result in series [2] is recorded as “binds”.

As for B2, the binding result in the series “crystal structure” is reported as “binds”.

In the case of B3, the Kd in series [3] was > 1000 µM.

A word on the Kd: it is the equilibrium constant for the complex coming apart.
